# Measurements from IntAct's records for PubMed 24510189.
# B1: mRNA-decapping enzyme 1A (Homo sapiens), Q9NPI6 (parent)
# chain: MEALSRAGQEMSLAALKQHDPYITSIADLTGQVALYTFCPKANQWEKTDIEGTLFVYRRSASPYHGFTIVNRLNMHNLVEPVNKDLEFQLHEPFLLYRNASLSIYSIWFYDKNDCHRIAKLMADVVEEETRRSQQAARDKQSPSQANGCSDHRPIDILEMLSRAKDEYERNQMGDSNISSPGLQPSTQLSNLGSTETLEEMPSGSQDKSAPSGHKHLTVEELFGTSLPKEQPAVVGLDSEEMERLPGDASQKEPNSFLPFPFEQLGGAPQSETLGVPSAAHHSVQPEITTPVLITPASITQSNEKHAPTYTIPLSPVLSPTLPAEAPTAQVPPSLPRNSTMMQAVKTTPRQRSPLLNQPVPELSHASLIANQSPFRAPLNVTNTAGTSLPSVDLLQKLRLTPQHDQIQTQPLGKGAMVASFSPAAGQLATPESFIEPPSKTAAARVAASASLSNMVLAPLQSMQQNQDPEVFVQPKVLSSAIPVAGAPLVTATTTAVSSVLLAPSVFQQTVTRSSDLERKASSPSPLTIGTPESQRKPSIILSKSQLQDTLIHLIKNDSSFLSTLHEVYLQVLTKNKDNHNL
# partner: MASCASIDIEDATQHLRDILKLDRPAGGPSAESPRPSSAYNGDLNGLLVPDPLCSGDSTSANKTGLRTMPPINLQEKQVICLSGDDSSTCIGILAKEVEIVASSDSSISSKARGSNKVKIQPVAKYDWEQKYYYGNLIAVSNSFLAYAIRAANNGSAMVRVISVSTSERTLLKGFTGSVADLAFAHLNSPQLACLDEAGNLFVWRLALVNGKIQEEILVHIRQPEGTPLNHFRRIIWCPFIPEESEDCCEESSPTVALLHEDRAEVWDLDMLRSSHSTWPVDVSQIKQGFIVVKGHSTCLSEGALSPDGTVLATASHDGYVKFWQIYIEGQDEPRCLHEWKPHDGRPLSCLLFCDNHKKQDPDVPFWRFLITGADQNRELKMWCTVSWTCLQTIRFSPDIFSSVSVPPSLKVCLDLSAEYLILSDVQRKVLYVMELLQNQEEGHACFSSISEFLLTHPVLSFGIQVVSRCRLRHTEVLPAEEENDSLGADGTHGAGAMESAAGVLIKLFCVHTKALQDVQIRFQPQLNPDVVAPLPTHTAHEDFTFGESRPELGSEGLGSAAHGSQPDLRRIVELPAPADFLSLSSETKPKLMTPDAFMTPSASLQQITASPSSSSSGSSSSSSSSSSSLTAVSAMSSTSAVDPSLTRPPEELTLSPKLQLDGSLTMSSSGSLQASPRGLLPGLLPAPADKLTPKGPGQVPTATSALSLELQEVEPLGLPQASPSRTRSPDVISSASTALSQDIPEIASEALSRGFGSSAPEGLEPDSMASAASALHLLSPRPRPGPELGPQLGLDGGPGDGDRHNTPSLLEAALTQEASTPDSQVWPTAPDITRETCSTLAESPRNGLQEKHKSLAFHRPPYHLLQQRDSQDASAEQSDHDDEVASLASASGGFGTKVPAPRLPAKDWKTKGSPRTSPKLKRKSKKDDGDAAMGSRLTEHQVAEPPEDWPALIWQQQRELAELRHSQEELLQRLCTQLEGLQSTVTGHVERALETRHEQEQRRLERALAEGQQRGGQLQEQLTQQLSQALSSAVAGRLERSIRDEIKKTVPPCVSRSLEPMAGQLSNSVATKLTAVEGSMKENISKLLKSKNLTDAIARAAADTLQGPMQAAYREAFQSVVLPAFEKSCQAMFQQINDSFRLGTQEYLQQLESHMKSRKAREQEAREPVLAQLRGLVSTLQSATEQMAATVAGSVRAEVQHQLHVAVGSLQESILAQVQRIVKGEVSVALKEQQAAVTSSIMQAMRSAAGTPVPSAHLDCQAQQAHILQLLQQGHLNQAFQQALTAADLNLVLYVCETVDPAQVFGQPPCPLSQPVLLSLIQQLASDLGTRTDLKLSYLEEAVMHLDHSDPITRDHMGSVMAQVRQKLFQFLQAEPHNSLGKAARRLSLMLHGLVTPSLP
# Variants of: B1
# Settings: with edc4_human EDC4, Q6P2E9
row,Variant,effect of a mutation on the interaction
1,MEALSRAGQEMSLAALKAADPYITSIADLTGQVALYTFCPKANQWEKTDIEGTLFVYRRSASPYHGFTIVNRLNMHNLVEPVNKDLEFQLHEPFLLYRNASLSIYSIWFYDKNDCHRIAKLMADVVEEETRRSQQAARDKQSPSQANGCSDHRPIDILEMLSRAKDEYERNQMGDSNISSPGLQPSTQLSNLGSTETLEEMPSGSQDKSAPSGHKHLTVEELFGTSLPKEQPAVVGLDSEEMERLPGDASQKEPNSFLPFPFEQLGGAPQSETLGVPSAAHHSVQPEITTPVLITPASITQSNEKHAPTYTIPLSPVLSPTLPAEAPTAQVPPSLPRNSTMMQAVKTTPRQRSPLLNQPVPELSHASLIANQSPFRAPLNVTNTAGTSLPSVDLLQKLRLTPQHDQIQTQPLGKGAMVASFSPAAGQLATPESFIEPPSKTAAARVAASASLSNMVLAPLQSMQQNQDPEVFVQPKVLSSAIPVAGAPLVTATTTAVSSVLLAPSVFQQTVTRSSDLERKASSPSPLTIGTPESQRKPSIILSKSQLQDTLIHLIKNDSSFLSTLHEVYLQVLTKNKDNHNL [Q18A;H19A],with no effect
2,MEALSRAGQEMALAALKQADPYITSIADLTGQVALYTFCPKANQWEKTDIEGTLFVYRRSASPYHGFTIVNRLNMHNLVEPVNKDLEFQLHEPFLLYRNASLSIYSIWFYDKNDCHRIAKLMADVVEEETRRSQQAARDKQSPSQANGCSDHRPIDILEMLSRAKDEYERNQMGDSNISSPGLQPSTQLSNLGSTETLEEMPSGSQDKSAPSGHKHLTVEELFGTSLPKEQPAVVGLDSEEMERLPGDASQKEPNSFLPFPFEQLGGAPQSETLGVPSAAHHSVQPEITTPVLITPASITQSNEKHAPTYTIPLSPVLSPTLPAEAPTAQVPPSLPRNSTMMQAVKTTPRQRSPLLNQPVPELSHASLIANQSPFRAPLNVTNTAGTSLPSVDLLQKLRLTPQHDQIQTQPLGKGAMVASFSPAAGQLATPESFIEPPSKTAAARVAASASLSNMVLAPLQSMQQNQDPEVFVQPKVLSSAIPVAGAPLVTATTTAVSSVLLAPSVFQQTVTRSSDLERKASSPSPLTIGTPESQRKPSIILSKSQLQDTLIHLIKNDSSFLSTLHEVYLQVLTKNKDNHNL [S12A;H19A],with no effect
3,MEALSRAGQEMSLAALKQADPYITSIADLTGQVALYTFCPKANQWEKTDIEGTLFVYRRSASPYHGFTIVNRLNMHNLVEPVNKDLEFQLHEPFLLYRNASLSIYSIWFYDKNDCHRIAKLMADVVEEETRRSQQAARDKQSPSQANGCSDHRPIDILEMLSRAKDEYERNQMGDSNISSPGLQPSTQLSNLGSTETLEEMPSGSQDKSAPSGHKHLTVEELFGTSLPKEQPAVVGLDSEEMERLPGDASQKEPNSFLPFPFEQLGGAPQSETLGVPSAAHHSVQPEITTPVLITPASITQSNEKHAPTYTIPLSPVLSPTLPAEAPTAQVPPSLPRNSTMMQAVKTTPRQRSPLLNQPVPELSHASLIANQSPFRAPLNVTNTAGTSLPSVDLLQKLRLTPQHDQIQTQPLGKGAMVASFSPAAGQLATPESFIEPPSKTAAARVAASASLSNMVLAPLQSMQQNQDPEVFVQPKVLSSAIPVAGAPLVTATTTAVSSVLLAPSVFQQTVTRSSDLERKASSPSPLTIGTPESQRKPSIILSKSQLQDTLIHLIKNDSSFLSTLHEVYLQVLTKNKDNHNL [H19A],with no effect

# The remaining lines, values ahead:
row,effect of a mutation on the interaction,Variant
1,with no effect,MEALSRAGQEMSLAALKQHDPYITSIADLTGQVALYTFCPKANQWEKTDIEGTLFVYRRSASPYHGFTIVNGLNMHNLVEPVNKDLEFQLHEPFLLYRNASLSIYSIWFYDKNDCHRIAKLMADVVEEETRRSQQAARDKQSPSQANGCSDHRPIDILEMLSRAKDEYERNQMGDSNISSPGLQPSTQLSNLGSTETLEEMPSGSQDKSAPSGHKHLTVEELFGTSLPKEQPAVVGLDSEEMERLPGDASQKEPNSFLPFPFEQLGGAPQSETLGVPSAAHHSVQPEITTPVLITPASITQSNEKHAPTYTIPLSPVLSPTLPAEAPTAQVPPSLPRNSTMMQAVKTTPRQRSPLLNQPVPELSHASLIANQSPFRAPLNVTNTAGTSLPSVDLLQKLRLTPQHDQIQTQPLGKGAMVASFSPAAGQLATPESFIEPPSKTAAARVAASASLSNMVLAPLQSMQQNQDPEVFVQPKVLSSAIPVAGAPLVTATTTAVSSVLLAPSVFQQTVTRSSDLERKASSPSPLTIGTPESQRKPSIILSKSQLQDTLIHLIKNDSSFLSTLHEVYLQVLTKNKDNHNL [R72G]
2,with no effect,MEALSRAGQEMSLAALKQHDPYITSIADLTGQVALYTFCPKANQWEKTDIEGTLFVYRRSASPYHGFTIVNGSSGHNLVEPVNKDLEFQLHEPFLLYRNASLSIYSIWFYDKNDCHRIAKLMADVVEEETRRSQQAARDKQSPSQANGCSDHRPIDILEMLSRAKDEYERNQMGDSNISSPGLQPSTQLSNLGSTETLEEMPSGSQDKSAPSGHKHLTVEELFGTSLPKEQPAVVGLDSEEMERLPGDASQKEPNSFLPFPFEQLGGAPQSETLGVPSAAHHSVQPEITTPVLITPASITQSNEKHAPTYTIPLSPVLSPTLPAEAPTAQVPPSLPRNSTMMQAVKTTPRQRSPLLNQPVPELSHASLIANQSPFRAPLNVTNTAGTSLPSVDLLQKLRLTPQHDQIQTQPLGKGAMVASFSPAAGQLATPESFIEPPSKTAAARVAASASLSNMVLAPLQSMQQNQDPEVFVQPKVLSSAIPVAGAPLVTATTTAVSSVLLAPSVFQQTVTRSSDLERKASSPSPLTIGTPESQRKPSIILSKSQLQDTLIHLIKNDSSFLSTLHEVYLQVLTKNKDNHNL [R72G;L73S;N74S;M75G]
